Test results: patent US6429305 (ACADEMIA SINICA, dated 2002)

Target: growth hormone receptor on ZFL cells (zebrafish liver cell line) (zebrafish)
Assay: cell-based or functional assay

B1: recombinant yellow grouper (Epinephelus awoara) growth hormone (ligand)
chain: MITDGQRLFSIAVSRVQHLHLLAQRLFSDFESSLQTEEQRQLNKIFLQDFCNSDYIISPIDKHETQRSSVLKLLSISYRLVESWEFPSRSLSGGSAPRNQIFPKLSELKTGILLLIRANQDGAELFPDSSALQLAPYGNYYQSLGADESLRRTYELLACFKKDMHKVETYLTVAKCRLSPEANCTLLEHHHHHH
increase in cell proliferation relative to no growth hormone added (MTS-formazan conversion assay, ZFL cells): 58.3%

B2: recombinant ayu (Plecoglossus altivelis) growth hormone (ligand)
chain: MSENQRLFSIAVNRAQHLHLLAQKMFNDFEGNLSPDDRRQMNKIFLQDFCNSDSIISPVDKHETQKSSVQKLLHISFRLVESWEYPSQALSSSLSLSRFSEIPLKLTDLKLGIDTILRGTQDGLLSLEDNEAQQLPPYENYYQNLGGDDNIHRSYELLACFKKDMHKVETYLTVAKCRRSLEANCTLLEHHHHHH
increase in cell proliferation relative to no growth hormone added (MTS-formazan conversion assay, ZFL cells): 118%
